Results from patent publication US20210284749A1.

Target: human BCMA-Fc (R&D system, 193-BC-050) (human) (UniProt Q02223)
Assay: competition ELISA on coated human BCMA-Fc; antibody titrated and mixed with 200 ng/ml BAFF, bound BAFF detected, absorbance 450 nm

Sequence of human BCMA-Fc (R&D system, 193-BC-050) (human) (Q02223 1-54 limits assumed): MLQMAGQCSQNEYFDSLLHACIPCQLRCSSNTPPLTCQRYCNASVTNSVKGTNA

IC50 (read off the curve): 4 nM
B1: J6MO (antibody, INN chains, looked up, V domains shown)
VH: QVQLVQSGAEVKKPGSSVKVSCKASGGTFSNYWMHWVRQAPGQGLEWMGATYRGHSDTYYNQKFKGRVTITADKSTSTAYMELSSLRSEDTAVYYCARGAIYDGYDVLDNWGQGTLVTVSS
VL: DIQMTQSPSSLSASVGDRVTITCSASQDISNYLNWYQQKPGKAPKLLIYYTSNLHSGVPSRFSGSGSGTDFTLTISSLQPEDFATYYCQQYRKLPWTFGQGTKLEIK
